Consider one molecule from article PMC9236607, “TUBA1A tubulinopathy mutants disrupt neuron morphogenesis and override XMAP215/Stu2 regulation of microtubule dynamics” (eLife, 2022).

This test has as its target T1, purified budding yeast tubulin heterodimer, Tub1-WT (internal 6X-His) with Tub2 (S. cerevisiae, UniProt P09733 1-447; P02557 1-457).
T1 construct: alpha-tubulin Tub1, S. cerevisiae, from pRS426-GAL-Tub1-internal 6X-His (Johnson et al., 2011); beta-tubulin Tub2, S. cerevisiae, untagged, from pRS424-GAL-Tub2 (Johnson et al., 2011); also called WT tubulin; WT yeast tubulin; source: S. cerevisiae JEL1 (protease deficient), overexpressed from GAL plasmids, purified (His60 Ni column, HiTrap Q)
Nature of the test: pull-down; 100 nM tubulin mixed with 9.8 nM to 5 µM GST-TOG1/2 at 4°C for 15 min, then glutathione magnetic agarose beads, 4°C, 1 hr; beads equilibrated in 125 mM Tris-HCl, 150 mM KCl, 1 mM DTT, 1 mM EDTA, pH 7.4; unbound tubulin left in the supernatant read by western blot for α- and β-tubulin. Particulars: both partners purified.

T1 sequence (P09733 whole entry, chain 1 of 2): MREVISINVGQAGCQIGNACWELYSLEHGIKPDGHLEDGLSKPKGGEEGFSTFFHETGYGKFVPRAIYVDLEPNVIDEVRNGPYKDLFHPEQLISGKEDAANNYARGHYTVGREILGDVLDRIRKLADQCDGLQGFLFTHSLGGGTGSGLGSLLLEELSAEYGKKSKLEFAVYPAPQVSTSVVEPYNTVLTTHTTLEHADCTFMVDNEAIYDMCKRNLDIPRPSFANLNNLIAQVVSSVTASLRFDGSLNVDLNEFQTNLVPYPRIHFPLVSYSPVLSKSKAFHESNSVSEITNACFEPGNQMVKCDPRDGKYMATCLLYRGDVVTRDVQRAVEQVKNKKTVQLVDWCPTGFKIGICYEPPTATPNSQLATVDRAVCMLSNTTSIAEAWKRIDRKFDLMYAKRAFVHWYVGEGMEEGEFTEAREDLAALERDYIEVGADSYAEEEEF
T1 sequence (P02557 whole entry, chain 2 of 2): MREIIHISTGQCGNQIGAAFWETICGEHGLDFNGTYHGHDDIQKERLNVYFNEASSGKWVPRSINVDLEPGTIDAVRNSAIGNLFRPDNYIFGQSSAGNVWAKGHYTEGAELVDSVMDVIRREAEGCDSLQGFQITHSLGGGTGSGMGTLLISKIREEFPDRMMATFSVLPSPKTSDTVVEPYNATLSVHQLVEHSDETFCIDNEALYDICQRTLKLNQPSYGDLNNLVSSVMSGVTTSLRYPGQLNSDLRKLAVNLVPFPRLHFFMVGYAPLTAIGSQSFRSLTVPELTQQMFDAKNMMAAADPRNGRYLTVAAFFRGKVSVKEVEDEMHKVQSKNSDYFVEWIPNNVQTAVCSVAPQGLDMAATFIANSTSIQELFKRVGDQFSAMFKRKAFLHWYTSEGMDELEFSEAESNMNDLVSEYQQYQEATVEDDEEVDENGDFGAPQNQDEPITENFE

B1: GST-TOG1/2 (the two TOG domains of Stu2 fused to a GST tag, Stu2 1-590) (domain or fragment, S. cerevisiae, UniProt P46675 1-590, looked up)
chain: MSGEEEVDYTTLPLEERLTYKLWKARLEAYKELNQLFRNSVGDISRDDNIQIYWRDPTLFAQYITDSNVVAQEQAIVALNSLIDAFASSSLKNAHNITLISTWTPLLVEKGLTSSRATTKTQSMSCILSLCGLDTSITQSVELVIPFFEKKLPKLIAAAANCVYELMAAFGLTNVNVQTFLPELLKHVPQLAGHGDRNVRSQTMNLIVEIYKVTGNNSDLLEEILFKKLKPIQVKDLHKLFAKVGDEPSSSKMLFEWEKRELEKKRSQEEEARKRKSILSNDEGEYQIDKDGDTLMGMETDMPPSKQQSGVQIDTFSMLPEETILDKLPKDFQERITSSKWKDRVEALEEFWDSVLSQTKKLKSTSQNYSNLLGIYGHIIQKDANIQAVALAAQSVELICDKLKTPGFSKDYVSLVFTPLLDRTKEKKPSVIEAIRKALLTICKYYDPLASSGRNEDMLKDILEHMKHKTPQIRMECTQLFNASMKEEKDGYSTLQRYLKDEVVPIVIQIVNDTQPAIRTIGFESFAILIKIFGMNTFVKTLEHLDNLKRKKIEETVKTLPNFSIASGSTHSTIETNKQTGPMENKFLLK
notes: Stu2 (yeast homologue of XMAP215), S. cerevisiae, residues 1-590 with the TOG1 and TOG2 domains, from pGEX-6P-1 Stu2 1-590 (Widlund et al., 2012); also called Stu2 TOG1/2 domains; Stu2 TOG1/TOG2 domains; source: E. coli BL21, purified (GSTrap HP, eluted with reduced glutathione); not shown: GST, N-terminal, kept
For the molecule B1, the binding result is “binds”.
